T1: MdNAC4-GST (apple, UniProt B6DXL4 1-350)
T1 sequence: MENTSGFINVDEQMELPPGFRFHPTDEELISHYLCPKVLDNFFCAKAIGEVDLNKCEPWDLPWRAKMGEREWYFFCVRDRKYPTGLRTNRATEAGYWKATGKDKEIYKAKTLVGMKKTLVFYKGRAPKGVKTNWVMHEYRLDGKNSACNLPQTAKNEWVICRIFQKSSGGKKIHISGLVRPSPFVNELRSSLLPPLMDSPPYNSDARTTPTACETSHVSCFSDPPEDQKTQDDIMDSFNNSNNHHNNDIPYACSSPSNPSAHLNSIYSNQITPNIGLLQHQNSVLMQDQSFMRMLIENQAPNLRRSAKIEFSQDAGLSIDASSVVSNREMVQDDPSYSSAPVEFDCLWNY


Key:
Conditions in all cases: protein: recombinant; tags: GST (pGEX4T-1); label: biotin; blunt
MdNAC4-GST [1] = molecular target: T1, MdNAC4-GST; test: EMSA; LightShift binding buffer, 30 min at 24 °C in the dark; biotin-labeled probes; salt and pH not stated
MdNAC4-GST [2] = molecular target: T1, MdNAC4-GST; test: EMSA; unlabeled competitor 5x, 50x, 100x progressively abolished binding; LightShift binding buffer, 30 min at 24 °C in the dark; biotin-labeled probes; salt and pH not stated
MdNAC4-GST [3] = molecular target: T1, MdNAC4-GST; test: EMSA; unlabeled competitor 5x, 50x, 100x abolished binding; LightShift binding buffer, 30 min at 24 °C in the dark; biotin-labeled probes; salt and pH not stated

Row | Binder | binding result (MdNAC4-GST [1]) | further results
1 | MdSAG39 mutant probe (dsDNA) DNA 1: TTTTGTAAGGGACGGACCACGCTGA DNA 2: TCAGCGTGGTCCGTCCCTTACAAAA | no binding | –
2 | MdNCED2 promoter probe P4 (ABRE) (dsDNA) DNA 1: TAAATCCACCACGTGGTCTCTCATG DNA 2: CATGAGAGACCACGTGGTGGATTTA | – | binding result (MdNAC4-GST [2]): binds
3 | MdNCED2 mutant probe (dsDNA) DNA 1: TAAATCCACGACGGGGTCTCTCATG DNA 2: CATGAGAGACCCCGTCGTGGATTTA | no binding | –
4 | MdSAG39 promoter probe P2 (ABRE) (dsDNA) DNA 1: TTTTGTAAGGCACGTACCACGCTGA DNA 2: TCAGCGTGGTACGTGCCTTACAAAA | – | binding result (MdNAC4-GST [3]): binds

— article PMC10514974, “The NAC transcription factor MdNAC4 positively regulates nitrogen deficiency-induced leaf senescence by enhancing ABA biosynthesis in apple”
